Data: US12427210B2, “Compounds comprising a fibroblast activation protein ligand and use thereof” (priority 2019, dated 2025)

T1: AR (h) (human), P10275
T1 chain: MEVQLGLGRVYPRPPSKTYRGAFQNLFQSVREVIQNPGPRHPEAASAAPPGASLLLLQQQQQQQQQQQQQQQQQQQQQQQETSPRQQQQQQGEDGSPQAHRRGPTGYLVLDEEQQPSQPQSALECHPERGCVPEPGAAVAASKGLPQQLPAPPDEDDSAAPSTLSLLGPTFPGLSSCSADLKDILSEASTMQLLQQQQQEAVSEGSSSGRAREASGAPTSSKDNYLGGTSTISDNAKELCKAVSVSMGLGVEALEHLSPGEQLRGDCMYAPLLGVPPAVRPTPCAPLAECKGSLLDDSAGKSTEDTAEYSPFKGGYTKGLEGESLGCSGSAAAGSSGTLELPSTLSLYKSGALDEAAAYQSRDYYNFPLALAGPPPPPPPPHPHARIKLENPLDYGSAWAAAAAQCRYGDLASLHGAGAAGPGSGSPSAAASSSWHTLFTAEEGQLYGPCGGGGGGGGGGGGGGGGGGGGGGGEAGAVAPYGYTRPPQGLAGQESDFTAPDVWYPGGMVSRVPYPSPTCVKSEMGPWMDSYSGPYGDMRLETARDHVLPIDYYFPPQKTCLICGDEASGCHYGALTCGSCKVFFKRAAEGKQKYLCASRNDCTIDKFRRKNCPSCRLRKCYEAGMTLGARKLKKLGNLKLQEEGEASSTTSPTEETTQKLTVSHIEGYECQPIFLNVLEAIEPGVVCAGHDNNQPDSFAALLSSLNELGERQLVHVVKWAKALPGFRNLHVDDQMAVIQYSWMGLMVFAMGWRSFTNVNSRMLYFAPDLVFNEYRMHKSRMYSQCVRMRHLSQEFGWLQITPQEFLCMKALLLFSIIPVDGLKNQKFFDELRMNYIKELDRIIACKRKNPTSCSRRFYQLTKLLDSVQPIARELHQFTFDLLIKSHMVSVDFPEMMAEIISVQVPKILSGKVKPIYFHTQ

T2: M1 (h) (human), P11229
T2 chain: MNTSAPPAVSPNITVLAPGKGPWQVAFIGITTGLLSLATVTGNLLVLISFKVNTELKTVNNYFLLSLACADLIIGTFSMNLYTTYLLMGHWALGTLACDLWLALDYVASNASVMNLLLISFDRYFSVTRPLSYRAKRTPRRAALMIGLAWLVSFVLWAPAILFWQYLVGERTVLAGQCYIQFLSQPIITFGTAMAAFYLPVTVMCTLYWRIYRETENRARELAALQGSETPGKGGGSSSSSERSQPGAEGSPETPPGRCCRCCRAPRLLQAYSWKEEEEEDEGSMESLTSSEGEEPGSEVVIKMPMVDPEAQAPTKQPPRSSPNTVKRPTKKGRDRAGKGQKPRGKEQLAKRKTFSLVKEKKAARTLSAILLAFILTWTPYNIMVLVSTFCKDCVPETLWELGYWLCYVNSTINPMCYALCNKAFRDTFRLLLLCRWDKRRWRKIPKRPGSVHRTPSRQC

T3: Potassium Channel hERG (human) (human), Q12809
T3 chain: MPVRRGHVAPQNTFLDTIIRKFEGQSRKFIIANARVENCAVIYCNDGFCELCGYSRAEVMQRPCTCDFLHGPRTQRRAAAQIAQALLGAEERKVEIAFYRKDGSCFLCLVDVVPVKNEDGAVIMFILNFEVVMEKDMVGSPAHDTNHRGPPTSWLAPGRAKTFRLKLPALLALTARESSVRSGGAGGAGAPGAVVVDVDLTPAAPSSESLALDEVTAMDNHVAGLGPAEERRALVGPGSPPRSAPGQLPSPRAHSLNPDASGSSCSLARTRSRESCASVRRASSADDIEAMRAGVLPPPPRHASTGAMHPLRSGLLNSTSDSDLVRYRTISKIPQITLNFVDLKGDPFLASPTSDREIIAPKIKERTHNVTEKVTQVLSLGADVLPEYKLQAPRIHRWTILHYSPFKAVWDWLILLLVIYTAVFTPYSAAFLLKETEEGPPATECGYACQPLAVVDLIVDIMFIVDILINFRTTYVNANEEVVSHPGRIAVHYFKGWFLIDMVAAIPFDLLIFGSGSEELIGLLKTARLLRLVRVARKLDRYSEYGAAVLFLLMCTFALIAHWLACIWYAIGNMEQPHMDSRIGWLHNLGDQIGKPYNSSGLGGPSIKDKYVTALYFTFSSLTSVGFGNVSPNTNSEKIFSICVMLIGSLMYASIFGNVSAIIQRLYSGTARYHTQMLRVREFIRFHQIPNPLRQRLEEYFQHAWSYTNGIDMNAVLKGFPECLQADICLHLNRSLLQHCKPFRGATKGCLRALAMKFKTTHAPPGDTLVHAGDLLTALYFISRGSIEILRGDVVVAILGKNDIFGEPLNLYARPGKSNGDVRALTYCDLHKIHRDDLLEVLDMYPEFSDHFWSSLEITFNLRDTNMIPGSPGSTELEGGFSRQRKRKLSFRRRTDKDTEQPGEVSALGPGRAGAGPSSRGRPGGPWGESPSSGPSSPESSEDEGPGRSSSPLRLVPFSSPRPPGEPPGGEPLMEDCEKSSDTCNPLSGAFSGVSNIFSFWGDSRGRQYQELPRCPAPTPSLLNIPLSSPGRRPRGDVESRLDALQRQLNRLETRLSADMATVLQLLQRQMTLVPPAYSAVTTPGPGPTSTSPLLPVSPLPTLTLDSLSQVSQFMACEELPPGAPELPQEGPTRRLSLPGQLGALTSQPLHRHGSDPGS

B1: Hex-[Cys(tMeBn(DOTA-AET))-Pro-Pro-Thr-Gln-Phe-Cys]-OH (3BP-3554) (peptide)
peptide: CPPTQFC
modifications: here or on the partner: N-terminal hexanoyl (Hex); Cys1 and Cys7 cyclised through tMeBn carrying DOTA-AET; free C-terminal acid (-OH)
B2: Hex-[Cys(tMeBn(DOTA-PP))-Pro-Pro-Thr-Gln-Phe-Cys]-Asp-NH2 (3BP-3407) (peptide)
peptide: CPPTQFCD
modifications: here or on the partner: N-terminal hexanoyl (Hex); Cys1 and Cys7 cyclised through tMeBn carrying DOTA-PP; C-terminal amide

Tests used:
Conditions in all cases: remark: other sources report otherwise
[1] = biological target: 5-HT2A (h) (human), P28223; assay: radioligand displacement, compound at 10 µM
AR (h) (human), P10275 = biological target: T1, AR (h) (human), P10275; assay: radioligand displacement, compound at 10 µM
H1 (h) (human), P35367 = assay: radioligand displacement, compound at 10 µM
M1 (h) (human), P11229 = biological target: T2, M1 (h) (human), P11229; assay: radioligand displacement, compound at 10 µM
[2] = biological target: T3, Potassium Channel hERG (human) (human), …; assay: displacement of [3H] Dofetilide, compound at 10 µM

H1 (h) (human), P35367, sequence (P35367 whole entry): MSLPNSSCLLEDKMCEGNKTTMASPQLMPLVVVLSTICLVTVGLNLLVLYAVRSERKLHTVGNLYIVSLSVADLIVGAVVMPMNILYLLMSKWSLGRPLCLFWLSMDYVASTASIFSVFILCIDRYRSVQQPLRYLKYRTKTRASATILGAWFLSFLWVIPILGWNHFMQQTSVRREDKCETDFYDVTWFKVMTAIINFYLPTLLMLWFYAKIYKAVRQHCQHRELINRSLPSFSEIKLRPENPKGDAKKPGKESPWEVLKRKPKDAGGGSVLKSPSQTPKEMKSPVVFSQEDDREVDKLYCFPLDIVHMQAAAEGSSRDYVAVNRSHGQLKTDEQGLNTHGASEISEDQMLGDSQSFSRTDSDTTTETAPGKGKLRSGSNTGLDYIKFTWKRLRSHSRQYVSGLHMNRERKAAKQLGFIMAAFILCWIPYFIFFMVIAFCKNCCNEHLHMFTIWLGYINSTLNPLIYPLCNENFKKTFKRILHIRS
5-HT2A (h) (human), P28223, sequence (P28223 whole entry): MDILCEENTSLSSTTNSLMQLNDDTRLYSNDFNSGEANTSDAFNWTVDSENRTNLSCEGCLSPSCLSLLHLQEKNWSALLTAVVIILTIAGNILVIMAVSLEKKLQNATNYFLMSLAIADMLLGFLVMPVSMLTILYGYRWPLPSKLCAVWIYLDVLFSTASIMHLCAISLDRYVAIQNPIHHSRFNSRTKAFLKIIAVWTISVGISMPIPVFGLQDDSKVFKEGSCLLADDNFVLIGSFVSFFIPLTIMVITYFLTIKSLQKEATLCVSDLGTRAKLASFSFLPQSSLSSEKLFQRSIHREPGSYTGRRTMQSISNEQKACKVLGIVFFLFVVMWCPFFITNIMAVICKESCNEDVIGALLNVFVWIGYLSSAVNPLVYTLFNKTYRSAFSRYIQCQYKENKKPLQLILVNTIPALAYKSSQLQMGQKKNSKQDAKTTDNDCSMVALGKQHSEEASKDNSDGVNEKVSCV

Binder	% Inhibition of Specific Binding [1] [%]	% Inhibition of Specific Binding (AR (h) (human), P10275) [%]	% Inhibition of Specific Binding (H1 (h) (human), P35367) [%]	% Inhibition of Specific Binding (M1 (h) (human), P11229) [%]	% Inhibition of Specific Binding [2] [%]
B1	4	-5	4	8	6
B2	-2	3	11	6	2
